We go through five molecules from patent US20220411506A1 (SUZHOU GALAXY BIOPHARMA, published 2022).

For test [1], the target named is T1, hCTLA4-hFc (human, UniProt P16410 36-161).
T1 construct: also called hCTLA4-Fc protein; biotinylated hCTLA4-hFc; not shown: hFc (human Fc)
T1 sequence (looked up): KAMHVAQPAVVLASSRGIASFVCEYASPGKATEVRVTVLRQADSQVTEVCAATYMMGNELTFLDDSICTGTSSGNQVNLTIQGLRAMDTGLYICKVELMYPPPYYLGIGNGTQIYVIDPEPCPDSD
As to the kind of experiment: ELISA, coated hCTLA4-hFc. On the procedure: ELISA was used for detecting the binding of purified antibodies to CTLA4-hFc. […] The plates were washed with PBST (PBS containing 0.05% of Tween-20) three times, and were blocked with 5% skimmed milk powder (Oxoid, catalog #LP0031B) for 2 hours at 37° C. The plates were washed three times with PBST and were incubated for 1 hour at room temperature with antibodies to be detected. The plates were washed three times and incubated for 1 hour at room temperature with 1/5000 diluted HRP-labeled goat anti-mouse IgG secondary antibodies (Invitrogen, catalog #31432). The plates were washed with PBST and were developed by adding TMB.
(In general: An ELISA detects its analyte on a solid surface through an enzyme-linked reagent.)

Test [2] concerns the target T2, monkey CTLA4-Fc (SinoBiological, catalog #90213-C02H) (monkey, UniProt G7PL88 36-161, Probably biotin-labeled (detected with HRP-streptavidin). Fused to an Fc that is not given in letters.).
T2 construct: Detected with streptavidin, so read as biotin-labeled like the mouse protein
T2 sequence: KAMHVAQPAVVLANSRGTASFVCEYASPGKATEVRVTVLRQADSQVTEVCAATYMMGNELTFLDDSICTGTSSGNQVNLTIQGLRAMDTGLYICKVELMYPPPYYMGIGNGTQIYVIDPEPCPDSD
As to the kind of experiment: ELISA, coated antibody, monkey CTLA4-Fc. Here is the method:
(§1) Species cross reactions of the purified antibodies were detected using ELISA. The quantified purified antibodies were coated on 96-well plates (Corning, catalog #9018) followed by incubation overnight at 4° C., and were blocked with 5% skimmed milk powder (Oxoid, catalog #LP0031B) for 2 hours at 37° C. The biotin-labeled mouse CTLA4-His (SinoBiological, catalog #50503-M08H) or monkey CTLA4-Fc (SinoBiological, catalog #90213-C02H) was added to the plates and incubated for 1 hour at room temperature. The plates were washed three times with PBST and incubated with 1/1000 diluted HRP-labeled streptavidin (BD, catalog #554066) for 1 hour at room temperature. The plates were washed and developed by adding TMB.

The target in test [3] is T1, hCTLA4-hFc. As to the kind of experiment: blocking ELISA, coated antibody, biotin hCTLA4-hFc, competitor hCD80-Fc. On the procedure:
(§2) The purified antibodies were coated on 96-well plates (Corning, catalog #9018) followed by incubation overnight at 4° C., and were blocked with 5% skimmed milk powder (Oxoid, catalog #LP0031B) for 2 hours at 37° C. […] The plates were washed with PBST and incubated with HRP-labeled streptavidin (BD, catalog #554066) for 1 hour at room temperature. The plates were washed and developed by adding TMB.

Test [4] deals with T1, hCTLA4-hFc. The test can be described thus: blocking ELISA, coated antibody, biotin hCTLA4-hFc, competitor hCD86-Fc. Here is the method: as §2
The target in test [5] is T3, biotin-labeled mouse CTLA4-His (SinoBiological, catalog #50503-M08H) (mouse, UniProt P09793 36-162, biotin-labeled (site not stated)).
T3 construct: not shown: His tag
The test can be described thus: ELISA, coated antibody, biotin mouse CTLA4-His. Here is the method: as §1

Test [6] addresses T1, hCTLA4-hFc. As to the kind of experiment: competition ELISA: biotin-labeled CTLA4-hFc pre-incubated with graded chimeric antibody, captured on coated Ipilimumab (2 ug/mL). On the procedure: The plates were washed three times with PBST and incubated with 1/1000 diluted HRP-labeled streptavidin (BD, catalog #554066) for 1 hour at room temperature. The plates were washed and developed by adding TMB.

Test [7] addresses T4, hCTLA4-mFc fusion protein (human, UniProt P16410 36-161).
T4 construct: Captured on AMC (anti-mouse Fc capture) sensors in the Octet assay; not shown: mFc (mouse Fc)
T4 sequence (looked up): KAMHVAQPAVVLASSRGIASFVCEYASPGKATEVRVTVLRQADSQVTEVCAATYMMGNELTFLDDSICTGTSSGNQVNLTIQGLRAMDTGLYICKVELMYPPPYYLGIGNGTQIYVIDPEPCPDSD
The test can be described thus: BLI (Octet-96), CTLA4-mFc on AMC sensor, antibody 3-200 nM, 1:1 global fit. On the procedure: The kinetic constants (kassoc and kdissoc) of binding of the antibody and the antigen were measured using the biomolecular interaction system Octet-96 (Pall Life Sciences, S-000959), and the equilibrium binding constant KD was further calculated. […] Specifically, AMC sensors were pre-wet in the buffer (PBS containing 0.02% Tween-20 and 0.1% BSA) for 10 minutes and then equilibrated in CTLA4-mFc sample buffer for 5 minutes to such that the CTLA4-mFc proteins were coupled to the surfaces of sensors. The CTLA4-mFc-coupled AMC sensors were first equilibrated in the buffer for 2 minutes and then incubated for 5 minutes in buffer containing different concentrations of antibody (3-200 nM) to measure the binding of antibodies to the CTLA4-mFc protein. Finally, the antigen and antibody-bound sensors were repositioned in the sample buffer and waited for 10 minutes to measure the dissociation of antibodies from the CTLA4-mFc proteins. The measured data were globally fitted using a 1:1 model to obtain kinetic constants of binding and dissociation. On this basis, an equilibrium binding constant KD was further obtained.
For orientation: BLI is a label-free optical method that tracks binding on a fibre tip over time.

Test [8] deals with T5, human CTLA4 on the cell surface (human, UniProt P16410 36-223).
T5 construct: whole, on cells; also called CTLA4 on the surface of human T cells
T5 sequence (looked up): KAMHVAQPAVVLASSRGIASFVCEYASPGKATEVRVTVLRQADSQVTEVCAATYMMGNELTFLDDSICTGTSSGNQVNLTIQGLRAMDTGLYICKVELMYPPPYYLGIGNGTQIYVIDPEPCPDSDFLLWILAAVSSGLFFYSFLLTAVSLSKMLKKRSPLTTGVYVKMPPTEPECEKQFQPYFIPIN
The test can be described thus: FACS on 293T-hCTLA4 cells. Here is the method:
The purified antibodies to be detected were added to wells at a certain concentration (50 μL/well) and incubated for 1 hour at 4° C. The cells were washed three times with buffer and were incubated for 0.5 hour at 4° C. with PE-labeled fluorescent secondary antibodies. The cells were washed three times with FACS buffer and re-suspended to 200 μL/well. The fluorescence signals were detected using Attune Nxt flow cytometer (Thermo Fisher).

B1: murine anti-CTLA4 monoclonal antibody 19C5-G11-A7-G5 (antibody, V domains shown)
VH: EVQLQQSGTVLARPGASVKMSCKASGYSFTSYWIHWVKQRPGQGLEWIGAFYPGNSDTNYNQNFKGKAKLTAVTSASTAYMELSSLTNEDSAVYYCTYYYRSSYAMDNWGQGTSVTVSS
VL: DIQMNQSPSSLSASLGDTITITCHASQNINDWLSWYQQKPGNIPKLLIYKASNLHTGVPSRFSGSGSGTGFTLTISSLQPEDIATYYCQQGQSYPLTFGSGTKLEIK
notes: Mouse hybridoma antibody purified on Protein A
In test [1], B1 gave an EC50 of 0.036 nM. For the same molecule, the “ELISA (OD)” value came out at 0.64 OD in test [2] and 0.06 OD in test [5]. Besides, the IC50 in test [3] worked out at 0.0357 µg/mL; in test [4], 3.15 µg/mL.

B2: human-mouse CTLA4 chimeric antibody 9B8-H2-B6-G5 (antibody, V domains shown)
VH: QVQLQQPGSELVRPGASVKLSCKASGYTFTNYWVHWVKQRPGQGLEWIGNIFPGSDTSNYDEKFISKATLTVDTSSSAAYMQLNSLTSEDSAVYYCARLAYFTNYGGAMDYWGRGTSVTVSS
VL: DIVLTQSPASLVVSLGQRATISCRASKSVSTSAYNYMHWYQQKPGQPPKLLIYLASNLESGVPARFSGSGSGTDFTLNVHPVEEEDAATYYCQLSRELPYTFGGGTKLEIK
Turning to B2, the “IC50 (read off the curve)” value in test [6] is around 0.2 µg/mL. The molecule further came in with a dissociation constant Kd in test [7] of 0.0868 nM.

B3: murine anti-CTLA4 monoclonal antibody 9B8-H2-B6-G5 (antibody, V domains shown)
VH: QVQLQQPGSELVRPGASVKLSCKASGYTFTNYWVHWVKQRPGQGLEWIGNIFPGSDTSNYDEKFISKATLTVDTSSSAAYMQLNSLTSEDSAVYYCARLAYFTNYGGAMDYWGRGTSVTVSS
VL: DIVLTQSPASLVVSLGQRATISCRASKSVSTSAYNYMHWYQQKPGQPPKLLIYLASNLESGVPARFSGSGSGTDFTLNVHPVEEEDAATYYCQLSRELPYTFGGGTKLEIK
notes: as for B1
B3: the half-maximal effective concentration (EC50) was 0.025 nM in test [1] and 1.08 nM in test [8]. Moreover, the “ELISA (OD)” value in test [2] was found to be 0.37 OD; in test [5], 0.06 OD. For the same molecule, the figures for the 50% inhibitory concentration (IC50) in test [3] and in test [4] were 0.00292 µg/mL and 1.08 µg/mL, respectively.

B4: human-mouse CTLA4 chimeric antibody 4H9-G5-D5-B1 (antibody, V domains shown)
VH: EVKLDETGGGLVQPGRSMKLSCVVSGFTFSDNWMNWVRQSPEKGLEWVAQIRNKPYNFETYYSDSVKGRFTISRDDSKSTVYLQMNNLRAEDMGVYYCTGGFTYWGQGTLVTVSA
VL: DIQMTQSPASLSASVGETVTITCGASENIYGGLNWYQRKQGKSPQLLIYGATNLAEGMSSRFSGSGSGRQYSLKISSLHPDDVATYYCQNVLSSPWTFGGGTKLEIK
As to B4, the “IC50 (read off the curve)” value in test [6] is around 0.03 µg/mL. Moreover, in test [7], the Kd was below 0.001 nM.

B5: murine anti-CTLA4 monoclonal antibody 4H9-G5-D5-B1 (antibody, V domains shown)
VH: EVKLDETGGGLVQPGRSMKLSCVVSGFTFSDNWMNWVRQSPEKGLEWVAQIRNKPYNFETYYSDSVKGRFTISRDDSKSTVYLQMNNLRAEDMGVYYCTGGFTYWGQGTLVTVSA
VL: DIQMTQSPASLSASVGETVTITCGASENIYGGLNWYQRKQGKSPQLLIYGATNLAEGMSSRFSGSGSGRQYSLKISSLHPDDVATYYCQNVLSSPWTFGGGTKLEIK
notes: as for B1
As for B5, the EC50 came out at 0.023 nM in test [1] and 1.35 nM in test [8]. The entries for the “ELISA (OD)” value in test [2] and in test [5] were 2.79 OD and 0.05 OD, respectively. Besides, the 50% inhibitory concentration (IC50) turned out to be 0.0691 µg/mL in test [3] and 7.24 µg/mL in test [4].

Broadly, the EC50 is the midpoint of the concentration-response curve. The term IC50 denotes the concentration that inhibits the measured activity by half. As usually defined, the Kd is the equilibrium constant for the complex coming apart.
